# Columns and labels:
# [1] = at best, in about 40% of patients (Dworkin, 2002); cited from earlier work
# [2] = target: T1, Mouse domain B loop E1 peptide B11 (Nav 1.7) (Mus musculus, UniProt Q62205); assay: Peptide binding ELISA, mouse B11 peptide
# T1 construct: host or cells: synthetic peptide
# Method: (§1) Nunc 96 well plates were coated overnight at 4° C. in 5 ug/ml Streptavidin (Jackson 016-000-114) 100 ul/well in carbonate coating buffer. Plates were washed four times in PBS/tween and 200 ul/well of block (1% BSA in PBS) was added for 1 hour at RT. Plates were washed four times in PBS/tween and 100 ul/well of biotinylated peptide at 5 ug/ml was added for 1 hour at RT. Plates were washed four times in PBS/tween and 100 ul/well of antibody added (starting at 10 ug/ml diluting in block in half logs down the plate) for 1 hour at RT. Plates were washed four times in PBS/tween and […] goat anti rabbit Fc HRP (Jackson 111-036-046) added for 1 hour at RT. Plates were washed four times in PBS/tween and 100 ul/well TMB (3,3′,5,5′ Tetramethylbenzidine) solution added. 50 ul/well of NaF was added to stop reaction and absorbance read at 630 nm.
# [3] = target: T2, human Nav1.7 channel (Homo sapiens, UniProt Q15858); assay: PatchXpress h Nav1.7 assay (automated Patch Clamp, HEK cells); type: cell-based; settings: for dose dependence of inhibition of human Nav1.7 currents: recombinant human Nav1.7 in HEK cells, repeated voltage step protocol, end point
# T2 construct: host or cells: HEK293
# Method: Extracellular solution contained (in mM): 130 NaCl, 4 KCl, 1.5 CaCl2, 1 MgCl2, 30 glucose, 10 HEPES (pH 7.4 with Tris-Base, and 300 to 305 mOsmolar). Intracellular solution contained (in mM): 5 NaCl, 115 CsF, 20 CsCl, […], 10 EGTA free acid (pH 7.2 with CsOH, and 290 to 295 mOsmolar) and was either made fresh or kept frozen. Extracellular and intracellular solutions were filtered prior to use. Antibodies were directly diluted in extracellular solution and were freshly (no more than 15 min) prepared before transfer to a 96-well polypropylene compound plate (Sarsted, #83.1835.500). For the experiments using selective peptide, antibodies and peptides, at equal concentrations, were preincubated at least 30-min at 4° C. prior Patch Clamp experiments.
# HEK293 cells stably expressing the human Nav1.7 channel (type IX voltage-gated sodium channel alpha subunit) were purchased from Upstate (Upstate, Millipore, cat.#CYL3011). Cells were cultured in T-75 (BD BioCoat™ Collagen I Cellware, Becton Dickinson Labware, Bedford, Mass., #356485) flasks coated with collagen type I using standard culture medium DMEM-F12 with-Glutamine (Invitrogen, #11320) containing 10% FBS (Lonza, #DE14-802F), 1% penicillin+streptomycin (Lonza, DE17-603E), 1% non essential amino acids (Lonza, BE13-114E) and 400 μg/ml G418 (GIBCO, #10131-027). Cells were plated at a density of 15,000 cells/cm2 or 8,000 cells/cm2 density for 2 or 3 days respectively before being used on PatchXpress® 7000A (Axon instrument, new part of MDS Analytical Technologies). Cells confluence never exceeded 90%. The day of the experiment, cells were harvested using Accumax (Sigma, A7089). Briefly, cells were washed twice in PBS (Lonza, #BE12-516F) without calcium and magnesium, and a 1:4 dilution of Accumax solution was added and incubated for 1.5 to 2-min at 37° C. DMEM-F12 with 15 mMHEPES and L-glutamine (Lonza, #BE12-719F) containing 10% FBS (recovery media) was added to quench Accumax digestion. The cells were subsequently centrifuged at 1,000 rpm for 5-min in 50 ml falcon tube and pellets are resuspended in 10 ml of recovery media. Cells are counted (CoulterZ2) and suspended at ˜0.1 million cells/ml and transferred to a 15 ml screw-cap tube for minimum 90 minutes at room temperature. Cells were then centrifuged for 60-s at 1,000 rpm. The pellet was gently resuspended in 1,000 μl extracellular solution and centrifuged a second time for 30-s at 1,000 rpm. Pellet was resuspended in 150 μL extracellular solution and immediately tested on the PatchXpress®. […]
# After 10-s, the pressure was switched from +4 to −30 mmHg to attract suspended cells to each of the 16 holes (electrodes). […] The cell was allowed to dialyze for 5 min, during which the access resistance was monitored. […]
# [4] = tested on: cultured rat dorsal root ganglion (DRG) neurons; assay: Dorsal root ganglion in vitro current clamp electrophysiology; type: cell-based; settings: 25 μg/ml; for number of evoked action potentials: compared with vehicle or control antibody, administration at time=2 minutes
# Method: Dorsal Root Ganglia were isolated from 1-2 wild-type rat pups, aged between postnatal day 1 and 3. Ganglia were washed in PBS after dissection and immediately placed into a DMEM (Lonza, #BE12-604F) solution containing 2 mg/ml collagenase (Sigma-Aldrich, #C2674) and incubated at 37° C. for approximately 45 minutes for enzymatic digestion. Collagenase solution was removed and replaced with DMEM supplemented with 10% Fetal Bovine Serum (Lonza, #DE14802F), 0.5 mM L-Glutamine (Lonza, #BE17-605E), 1% Penicillin/Streptomycin (Lonza, #BE17-603E) and 20 ng/ml nerve growth factor (NGF, Invitrogen). Ganglia were then mechanically triturated, centrifuged at 1000 g for 5 minutes, and resuspended in the same culture medium. Dissociated cells were counted and diluted to a suspension of 100,000-120,000 cells/ml on glass coverslips precoated with 50 μg/ml poly-D-lysine (Sigma) and 30 μg/ml laminin (Invitrogen) and incubated at 37° C., 5% CO2 until ready for use.
# Dissociated DRG were taken for use no more than two days in vitro (DIV) following preparation. Cells were visualized on an Olympus BX50WI upright microscope with an Ikegami ICD-42B CCD camera. […] All recordings were acquired using pClamp 10 software (Molecular Devices) and subsequently analyzed in Clampfit 10 (Molecular Devices). […] The liquid junction potential was calculated to be 14.2 mV, all reported voltages have been corrected to compensate.
# After formation of a tight seal (>1 GΩ) by release of positive pressure and manual suction in voltage clamp mode, capacitative currents were compensated and the command voltage was set to −70 mV. […] Whole cell parameters were recorded after dialysis. […] The amplifier was switched to current clamp mode and the resting membrane potential was recorded. […]
# Cells were subsequently treated either with control or antibody solutions by fast bath perfusion directly on to the recorded cell for 90 seconds to sufficiently fill the recording chamber, at which point both perfusion and aspiration were halted. […]
# [5] = target: T3, rat Nav1.7 channels (Rattus norvegicus, UniProt O08562); assay: Automated Patch Clamp analysis of recombinant rat Nav1.7 channels expressed in HEK cells; type: cell-based; settings: recombinant rat Nav1.7 in HEK cells
# T3 construct: expressed in transfected cells; host or cells: HEK cells
# Text: Automated Patch Clamp analysis of recombinant rat Nav1.7 channels expressed in HEK cells. […] Data points represent the normalized peak current amplitudes after application of a repeated voltage step protocol (end point) in the presence of antibody.
# [6] = target: T4, Nav 1.7 peptide B11.7 (Homo sapiens, UniProt Q15858); assay: Peptide binding ELISA, cyclic Nav 1.7 peptide B11.7; settings: biotinylated cyclic peptide on streptavidin plate
# T4 construct: host or cells: synthetic peptide captured on streptavidin plates
# Method: as §1
# [7] = target: T5, Human domain B loop E1 peptide B11 (Nav 1.7) (Homo sapiens, UniProt Q15858); assay: Peptide binding ELISA, human B11 peptide
# T5 construct: host or cells: synthetic peptide
# Method: as §1
# T2 sequence (Q15858 whole entry): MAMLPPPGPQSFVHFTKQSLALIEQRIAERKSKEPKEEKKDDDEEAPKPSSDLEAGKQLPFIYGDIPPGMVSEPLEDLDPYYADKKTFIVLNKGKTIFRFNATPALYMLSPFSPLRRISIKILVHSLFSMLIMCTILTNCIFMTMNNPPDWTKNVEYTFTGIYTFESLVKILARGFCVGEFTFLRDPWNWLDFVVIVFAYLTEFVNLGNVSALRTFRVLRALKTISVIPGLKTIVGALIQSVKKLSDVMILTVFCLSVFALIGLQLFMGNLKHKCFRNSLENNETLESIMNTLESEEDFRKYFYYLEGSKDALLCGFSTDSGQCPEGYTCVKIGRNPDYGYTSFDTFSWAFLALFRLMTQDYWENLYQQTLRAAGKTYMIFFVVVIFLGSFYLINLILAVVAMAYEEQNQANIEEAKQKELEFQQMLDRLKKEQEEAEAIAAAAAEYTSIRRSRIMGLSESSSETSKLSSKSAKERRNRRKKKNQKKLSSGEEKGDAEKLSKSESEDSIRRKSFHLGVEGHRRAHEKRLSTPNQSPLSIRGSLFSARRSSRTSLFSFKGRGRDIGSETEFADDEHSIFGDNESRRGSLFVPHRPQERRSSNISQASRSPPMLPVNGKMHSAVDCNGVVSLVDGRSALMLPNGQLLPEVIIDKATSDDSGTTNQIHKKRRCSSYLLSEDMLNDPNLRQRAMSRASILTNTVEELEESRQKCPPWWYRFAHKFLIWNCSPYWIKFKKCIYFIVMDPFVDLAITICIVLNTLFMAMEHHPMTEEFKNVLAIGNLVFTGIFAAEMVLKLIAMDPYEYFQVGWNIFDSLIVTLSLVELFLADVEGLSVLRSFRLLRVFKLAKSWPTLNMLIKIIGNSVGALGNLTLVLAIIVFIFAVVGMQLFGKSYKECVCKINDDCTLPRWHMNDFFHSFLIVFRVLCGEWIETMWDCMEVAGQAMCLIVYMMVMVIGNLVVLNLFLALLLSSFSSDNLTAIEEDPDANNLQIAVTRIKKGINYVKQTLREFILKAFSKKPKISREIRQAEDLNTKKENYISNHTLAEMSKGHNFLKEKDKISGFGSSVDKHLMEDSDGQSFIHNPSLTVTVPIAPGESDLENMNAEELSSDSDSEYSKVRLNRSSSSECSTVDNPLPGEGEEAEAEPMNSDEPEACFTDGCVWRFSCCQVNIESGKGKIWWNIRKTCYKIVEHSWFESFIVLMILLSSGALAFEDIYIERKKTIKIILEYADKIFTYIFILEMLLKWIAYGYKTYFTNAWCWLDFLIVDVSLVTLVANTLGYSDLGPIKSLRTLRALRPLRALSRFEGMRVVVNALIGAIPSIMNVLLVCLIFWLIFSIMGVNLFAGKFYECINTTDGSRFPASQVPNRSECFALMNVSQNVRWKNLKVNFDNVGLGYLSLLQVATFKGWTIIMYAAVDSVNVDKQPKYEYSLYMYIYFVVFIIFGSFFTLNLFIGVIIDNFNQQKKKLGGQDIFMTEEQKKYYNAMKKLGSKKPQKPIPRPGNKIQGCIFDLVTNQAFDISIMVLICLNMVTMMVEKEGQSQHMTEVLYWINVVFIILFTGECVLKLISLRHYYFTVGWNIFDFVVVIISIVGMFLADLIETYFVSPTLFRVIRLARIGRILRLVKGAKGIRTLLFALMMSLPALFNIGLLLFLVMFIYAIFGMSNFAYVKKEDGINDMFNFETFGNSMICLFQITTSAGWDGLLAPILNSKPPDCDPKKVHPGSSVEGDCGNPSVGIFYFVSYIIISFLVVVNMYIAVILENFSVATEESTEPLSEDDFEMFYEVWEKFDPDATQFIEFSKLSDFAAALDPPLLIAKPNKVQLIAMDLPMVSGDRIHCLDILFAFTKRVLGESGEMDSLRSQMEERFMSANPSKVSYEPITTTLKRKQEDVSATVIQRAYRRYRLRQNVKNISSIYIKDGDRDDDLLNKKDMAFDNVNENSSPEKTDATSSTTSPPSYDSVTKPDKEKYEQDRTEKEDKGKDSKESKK
# T3 sequence (O08562 whole entry): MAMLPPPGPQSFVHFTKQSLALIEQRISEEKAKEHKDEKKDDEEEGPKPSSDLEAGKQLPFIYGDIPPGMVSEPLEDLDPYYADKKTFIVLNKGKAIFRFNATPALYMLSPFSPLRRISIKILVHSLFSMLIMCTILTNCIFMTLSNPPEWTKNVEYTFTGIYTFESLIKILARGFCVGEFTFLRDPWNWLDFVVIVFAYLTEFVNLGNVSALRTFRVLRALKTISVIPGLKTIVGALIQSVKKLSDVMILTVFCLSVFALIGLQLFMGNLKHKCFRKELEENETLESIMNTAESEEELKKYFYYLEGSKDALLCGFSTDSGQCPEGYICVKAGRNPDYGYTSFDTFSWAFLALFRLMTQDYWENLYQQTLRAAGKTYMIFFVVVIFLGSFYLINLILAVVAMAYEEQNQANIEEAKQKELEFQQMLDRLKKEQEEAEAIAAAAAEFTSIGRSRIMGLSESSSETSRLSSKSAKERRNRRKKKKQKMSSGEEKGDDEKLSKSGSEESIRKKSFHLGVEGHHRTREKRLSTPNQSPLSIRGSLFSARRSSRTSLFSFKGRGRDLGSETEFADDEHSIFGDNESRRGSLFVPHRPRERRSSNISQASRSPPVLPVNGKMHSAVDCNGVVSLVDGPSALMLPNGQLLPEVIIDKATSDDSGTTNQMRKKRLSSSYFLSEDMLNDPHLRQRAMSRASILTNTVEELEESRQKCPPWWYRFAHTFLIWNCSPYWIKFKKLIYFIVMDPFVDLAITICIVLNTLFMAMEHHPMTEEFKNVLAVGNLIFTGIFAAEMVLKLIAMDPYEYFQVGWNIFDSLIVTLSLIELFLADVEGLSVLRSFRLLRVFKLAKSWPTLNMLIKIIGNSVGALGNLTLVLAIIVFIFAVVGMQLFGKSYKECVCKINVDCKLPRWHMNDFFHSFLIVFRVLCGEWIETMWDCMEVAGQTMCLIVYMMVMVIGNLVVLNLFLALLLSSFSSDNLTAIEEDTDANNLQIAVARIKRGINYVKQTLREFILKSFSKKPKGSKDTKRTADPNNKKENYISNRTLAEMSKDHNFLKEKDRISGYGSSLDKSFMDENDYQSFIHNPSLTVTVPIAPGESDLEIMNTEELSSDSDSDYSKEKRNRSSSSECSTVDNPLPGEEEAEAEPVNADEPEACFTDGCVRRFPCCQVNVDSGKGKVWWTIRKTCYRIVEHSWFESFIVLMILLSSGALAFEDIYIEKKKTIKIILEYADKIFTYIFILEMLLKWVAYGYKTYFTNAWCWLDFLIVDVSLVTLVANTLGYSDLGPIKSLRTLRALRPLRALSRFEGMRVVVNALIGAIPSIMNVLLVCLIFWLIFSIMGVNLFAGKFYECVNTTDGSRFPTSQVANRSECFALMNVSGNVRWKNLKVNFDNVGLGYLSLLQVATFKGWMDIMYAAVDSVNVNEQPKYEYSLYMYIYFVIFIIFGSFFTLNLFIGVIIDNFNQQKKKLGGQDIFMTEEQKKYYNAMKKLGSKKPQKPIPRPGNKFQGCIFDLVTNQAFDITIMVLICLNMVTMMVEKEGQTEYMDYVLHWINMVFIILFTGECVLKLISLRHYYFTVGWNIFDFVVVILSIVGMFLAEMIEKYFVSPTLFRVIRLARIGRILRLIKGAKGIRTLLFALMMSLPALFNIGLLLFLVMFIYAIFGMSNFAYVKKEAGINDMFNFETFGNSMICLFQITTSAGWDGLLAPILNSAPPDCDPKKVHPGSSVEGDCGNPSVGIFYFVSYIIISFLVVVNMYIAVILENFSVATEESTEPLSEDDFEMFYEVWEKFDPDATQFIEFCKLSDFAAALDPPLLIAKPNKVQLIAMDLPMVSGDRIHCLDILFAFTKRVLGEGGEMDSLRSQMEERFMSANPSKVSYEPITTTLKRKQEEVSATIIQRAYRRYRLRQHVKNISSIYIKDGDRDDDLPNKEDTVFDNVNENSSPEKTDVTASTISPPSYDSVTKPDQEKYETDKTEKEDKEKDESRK
molecule,measurement,setting,value
NCC1(CC(=O)O)CCCCC1 [gabapentin],pain reduction,[1],≤ 50%
"CA167_00983: rabbit anti-Nav1.7 monoclonal antibody, B11-specific; VH SEQ ID NO:148, VL SEQ ID NO:147 (antibody, V domains shown, derived from rabbit) VH: QSVEESGGRLVTPGTPLTLTCTVSGFSLSNYAMSWVRQAPGKGLEWIGIIGKSGSTAYASWAKGRFTISRTSTTVDLEITSPTTEDTATYFCVRFVLLWGPGTLVTVS VL: AQVLTQTASPVSAAVGGTVTINCQSSQSVYKNNDLAWYQQKPGQPPKLLIYYASTLASGVSSRFKGSGSGTEFTLTISDAQCDDAATYYCLGSYDCSSADCNAFGGGTKVVVK",ELISA binding to Mouse domain B loop E1 peptide B11,[2],binding
same,human Nav1.7 current when stimulated only at the end of the protocol,"[3]; 25 μg/ml, stimulation only at end, after incubation of antibody",does not produce an inhibition of the Nav1.7 current
same,human Nav1.7 currents under repeated activation,"[3]; 25 μg/ml, voltage step protocol at 0.1 Hz for ~20 minutes",reduced in the presence of the antibody (25 μg/ml) but only when repeated activation of the channel at 0.1 Hz is maintained
same,dose dependence of inhibition of human Nav1.7 currents,[3],dose-dependent inhibition
same,number of evoked action potentials,[4],significantly reduced
same,dose dependence of inhibition of rat Nav1.7 currents,"[5]; repeated voltage step protocol, end point",dose-dependent inhibition
same,ELISA binding to Nav 1.7 peptide (B11.7),[6],specific binding
same,ELISA binding to Human domain B loop E1 peptide B11,[7],binding
"CA167_01080: rabbit anti-Nav1.7 monoclonal antibody, B11-specific; VH SEQ ID NO:176, VL SEQ ID NO:175 (antibody, V domains shown, derived from rabbit) VH: QSLEESGGRLVTPETPLTLTCTASGIDLSKWPMTWVRQAPGKGLEWIGIIGRSGSTNYASWAKGRFTISKTSTTVDLKMTSPTTEDTATYFCARGGSYYDLWGQGTLVTVS VL: AQVLTQTASPVSAAVGNTVTITCQSSQSVWKNNDLSWYQQKLGQPPKLLIYYASTLASGVSSRFKASGSGTQFTLTISDVQCDDAGTYYCVGSYDCSSADCNAFGGGTKVVVK",ELISA binding to Mouse domain B loop E1 peptide B11,[2],binding
same,dose dependence of inhibition of human Nav1.7 currents,[3],dose-dependent inhibition
same,electrically induced spike frequency of DRG neurons,[4]; normalized to frequency at time 0,reduces
same,inhibition of rat Nav1.7 currents,[5]; 25 μg/ml,~26%
same,ELISA binding to Nav 1.7 peptide (B11.7),[6],specific binding
same,ELISA binding to Human domain B loop E1 peptide B11,[7],binding
"CA167_00932: rabbit anti-Nav1.7 monoclonal antibody, A32-specific; VH SEQ ID NO:140, VL SEQ ID NO:139 (antibody, V domains shown, derived from rabbit) VH: QSLEESGGRLVTPGTPLTLTCTVSGFSLSRYWMSWVRQAPGKGLEWIGNIGGGSGSTLYAPWAKGRSTISKTSTTVDLKITSPTTEDTATYFCGRYVKNGGGYRLDLWGPGTLVTVS VL: AAVLTQTPSSVSAAVGGTVTIKCQSSQSVYNNNEFSWYQQKPGQPPKLLIYDASKLASGVPSRFSGSGSGTQFTLTISGVQCDDVATYYCLGGYNDDTNRWAFGGGTEVVVE",number of evoked action potentials,[4],significantly reduced
